Measurements as given in patent US20260028391A1.
“And” between values parts separate entries of the source, which are not always exact repeats. Equal entries are not always repeated.

Key:
[1] = target: biot-MPV-F wt (metapneumovirus (MPV)); experiment: BLI, SA sensor loaded with biot-MPV-F wt, mAb 5 ug/ml, 4 min association, 6 min dissociation
[2] = target: fusion glycoprotein (F) of the MPV used in the neutralization of Table 34 (metapneumovirus); experiment: cell-based or functional assay
[3] = target: RSV fusion glycoprotein (RSV-F) of the RSV used in the neutralization of Table 33 (respiratory syncytial virus, strain not stated); experiment: cell-based or functional assay
[4] = target: biot-MPV-F D280N (metapneumovirus (MPV)); experiment: BLI, SA sensor loaded with biot-MPV-F D280N (sheet title 'MPV-G D280N'), mAb 5 ug/ml, 4 min association, 6 min dissociation
[5] = target: MPV F WT expressed on transfected Expi293F cells (metapneumovirus (MPV)); experiment: flow cytometry, transfected Expi293F cells, fixed and permeabilised
[6] = target: MPV F D280N mutant expressed on transfected Expi293F cells (metapneumovirus (MPV)); experiment: as above
[7] = target: biot-MPV-F D280N (metapneumovirus (MPV)); experiment: BLI (Octet), biotinylated F on SA sensors, mAb 5 µg/ml
[8] = target: biot-MPV-F wt (metapneumovirus (MPV)); experiment: as above
[9] = target: RSV-B B9320 F protein (RSV B, strain B9320); experiment: cell-based or functional assay
[10] = target: RSV-B B18537/62 F protein (RSV B, strain B18537/62) (UniProt P13843); experiment: cell-based or functional assay
[11] = target: RSV-long strain fusion glycoprotein (F) (RSV, long strain) (UniProt P12568); experiment: cell-based or functional assay
[12] = target: biot-MPV-F D280N (metapneumovirus (MPV)); experiment: BLI (Octet), biotinylated F on SA sensors, mAb 5 µg/ml; batch KYT
[13] = target: biot-RSV-F wt (respiratory syncytial virus (RSV)); experiment: as above
[14] = target: biot-MPV-F wt (metapneumovirus (MPV)); experiment: as above
[15] = target: biot-MPV-F D280N (metapneumovirus (MPV)); experiment: BLI (Octet), biotinylated F on SA sensors, mAb 5 µg/ml; forced deamidation sample, day 13 at 40 °C
[16] = target: biot-RSV-F wt (respiratory syncytial virus (RSV)); experiment: as above
[17] = target: biot-MPV-F wt (metapneumovirus (MPV)); experiment: as above
[18] = target: biot-MPV-F D280N (metapneumovirus (MPV)); experiment: BLI (Octet), biotinylated F on SA sensors, mAb 5 µg/ml; forced deamidation sample, day 7 at 40 °C
[19] = target: biot-RSV-F wt (respiratory syncytial virus (RSV)); experiment: as above
[20] = target: biot-MPV-F wt (metapneumovirus (MPV)); experiment: as above
[21] = target: biot-MPV-F D280N (metapneumovirus (MPV)); experiment: BLI (Octet), biotinylated F on SA sensors, mAb 5 µg/ml; forced deamidation sample, day 0
[22] = target: biot-RSV-F wt (respiratory syncytial virus (RSV)); experiment: as above
[23] = target: biot-MPV-F wt (metapneumovirus (MPV)); experiment: as above
[24] = target: biot-RSV-F wt (respiratory syncytial virus (RSV)); experiment: BLI, SA sensor loaded with biot-RSV-F wt, mAb 5 ug/ml, 4 min association, 6 min dissociation
[25] = target: biot-RSV-F wt (respiratory syncytial virus (RSV)); experiment: BLI (Octet), biotinylated F on SA sensors, mAb 5 µg/ml
[26] = target: biot-MPV-F D280N (metapneumovirus (MPV)); experiment: BLI, SA sensor loaded with biot-MPV-F D280N (sheet title 'MPV-G D280N'; head of the value column printed 'MPV-F', not 'KD (M)'), mAb 5 ug/ml, 4 min association, 6 min dissociation
[27] = target: MPV fusion glycoprotein MPV-F D280 (metapneumovirus (strain not stated)); experiment: SPR; sensors loaded with F protein, mAb in solution
[28] = target: MPV fusion glycoprotein MPV-F N280 (metapneumovirus (strain not stated)); experiment: as above
[29] = target: fusion glycoprotein of the MPV D280 used in the neutralization assay of Example 3 (metapneumovirus (strain not stated)); experiment: cell-based or functional assay
[30] = target: fusion glycoprotein of Human metapneumovirus-TN/96-213 (BEI NR-22243) (human metapneumovirus TN/96-213); experiment: cell-based or functional assay
[31] = target: fusion glycoprotein of Human Metapneumovirus-GFP CAN97-83 (Vira Tree M121) (human metapneumovirus CAN97-83) (UniProt Q6WB98); experiment: cell-based or functional assay
[32] = target: MPV fusion glycoprotein MPV-F D280 (metapneumovirus (strain not stated)); experiment: SPR; sensors loaded with MPV-F, mAb in solution (Experiment 3)
[33] = target: MPV fusion glycoprotein MPV-F N280 (metapneumovirus (strain not stated)); experiment: as above
[34] = target: MPV fusion glycoprotein with the D280N mutation (MPV-F N280), recombinant protein loaded on sensors (metapneumovirus (MPV), strain not stated); experiment: same manner as Experiment 1, RUN10, MPV-F D280 or MPV-F N280 on the sensors (Example 6, Experiment 3)

Binder | Kd [1] [nM] | IC50 (ng/mL) in neutralization against MPV [2] [ng/mL] | IC50 (ng/mL) in neutralization against RSV [3] [ng/mL] | Kd [4] [nM] | Kd [7] [nM] | Kd [8] [nM] | Kd [24] [nM] | Kd [25] [nM] | Kd [26] [nM] | further results
MPK190-v1.1-rIgG1m17,1-LS (antibody, V domains shown) VH: QVQLVESGGGLVKPGGSLTLSCAASGFSISGYGMNWVRQAPGRGLEWVASISASSTYIYYADSMKGRFTISRDNGKTSLYLQMKSLRAEDTAVYYCARAPIEPPYFDLWGRGTLVTVSS VL: QSVLTQPPSVSGAPGQRVTISCTGSNSNIGAGYDVHWYQHLPGKAPKVLIYGNNNRPSVVPDRFSGSNSGASASLAISGLQAEDEADYFCQSYDRRLSGPIFGGGTKLTVL | < 0.001 | 0.705 | 5.8 | 0.402 | 0.362 | < 0.001 | – | – | – | Binding (FACS) relative to parental mAb MPK190-v1.1 [5]: 1; Binding (FACS) relative to parental mAb MPK190-v1.1 [6]: 1
MPK190-rFab (Fab, V domains shown) VH: EVQLVESGGGLVKPGGSLTLSCAASGFSISGYGMNWVRQAPGRGLEWVASISASSTYIYYADSMKGRFTISRDNGKTSLYLQMKSLRAEDTAVYYCARAPIEPPYFDLWGRGTLVTVSS VL: QSVLTQPPSVSGAPGQRVTISCTGSNSNIGAGYDVHWYQHLPGKAPKVLIYGNNNRPSVVPDRFSGSNSGASASLAISGLQAEDEADYFCQSYDRRLSGPIFGGGTKLTVL | – | – | – | – | – | – | – | – | – | EC50, virus neutralization (Fab testing) [9]: 0.0325 nM; EC50, virus neutralization (Fab testing) [10]: 0.0633 nM; EC50, virus neutralization (Fab testing) [11]: 0.0979 nM
MPK190-rIgG1-LS (antibody, V domains shown) VH: EVQLVESGGGLVKPGGSLTLSCAASGFSISGYGMNWVRQAPGRGLEWVASISASSTYIYYADSMKGRFTISRDNGKTSLYLQMKSLRAEDTAVYYCARAPIEPPYFDLWGRGTLVTVSS VL: QSVLTQPPSVSGAPGQRVTISCTGSNSNIGAGYDVHWYQHLPGKAPKVLIYGNNNRPSVVPDRFSGSNSGASASLAISGLQAEDEADYFCQSYDRRLSGPIFGGGTKLTVL | < 0.001 | – | – | 0.381 | – | – | < 0.001 | – | – | Kd [12]: 0.37 nM; Kd [13]: 0.0539 nM; Kd [14]: < 0.001 nM; Kd [15]: 0.733 nM; Kd [16]: 0.304 nM; Kd [17]: 0.0577 nM; Kd [18]: 0.6 nM; Kd [19]: 0.128 nM; Kd [20]: 0.0159 nM; Kd [21]: 0.441 nM; Kd [22]: < 0.001 nM; Kd [23]: < 0.001 nM
MPH12-rIgG1-LS (antibody, V domains shown) VH: QVQLVESGGGLVKPGGSLRLSCVASGFTFSGFYMKWIRQAPGKGLEWVSSISASGSYTNYADSVEGRFTVSRDNAKNSLFLLMSSLRAEDTAVYYCARGDSYCGASACHGEFFHKWGQGTLVTVSS VL: QSVLTQPPSVSGAPGQRVTISCTGSDSNIGADFDVHWYQQLPGTAPKLLIYGNINRPSGVPDRFSGSRSGTSAFLAITRLQAEDEADYYCQSYDRSLHYVFGAGTKVTVL | – | 5.26 | 12.9 | – | 1.01 | < 0.001 | – | 1.2 | – | –
MPK77-rIgG1-LS (antibody, V domains shown) VH: EVQLVESGGGLVKPGGSLRLSCAASKSFSGYYMIWIRQAPGRGLEWIADISGSSTYTDYADSVKGRFTISRDNTRNTLYLQMNSLRPEDTAVYYCATEQVPSPGPFDLWGPGTLVTVSS VL: QSVLTQPPSVSGAPGQRVIISCTGSSSNIGAGYDVHWYQQFPGTSPKLLIYRNTNRPSGVPDRFSGFKSGASAALAITGLQAEDEADYYCQSYDRSLSGWAFGGGTKVTVL | < 0.001 | – | – | 0.406 | 0.394 | < 0.001 | < 0.001 | 0.00228 | – | –
MPK104-v1.1-rIgG1m17,1-LS (antibody, V domains shown) VH: QVQLVESGGGLVKPGGSLRLSCAASGFTIDGYGMNWVRQAPGKGLEWVSSISASSNYIYYADSMKGRFTISRDNGKNSLYLQMHSLRVEDTGVYYCARAPLEPPYFDLWGRGTLVTVSS VL: QSVLTQPPSVSGAPGQRVTISCSGGSSNIGAGYDVHWYQQVPGKGPKVLIYGNNNRPSGVPDRFSGSNFGASASLAITGLQADDEADYFCQSYDRRLGGPVFGGGTKLTVL | < 0.001 | 1.36 | 6.61 | – | – | – | – | – | 0.497 | Binding (FACS) relative to parental mAb MPK104-v1.1 [5]: 1; Binding (FACS) relative to parental mAb MPK104-v1.1 [6]: 1
MPK104-rIgG1-LS (antibody, V domains shown) VH: EVQLVESGGGLVKPGGSLRLSCAASGFTIDGYGMNWVRQAPGKGLEWVSSISASSNYIYYADSMKGRFTISRDNGKNSLYLQMHSLRVEDTGVYYCARAPLEPPYFDLWGRGTLVTVSS VL: QSVLTQPPSVSGAPGQRVTISCSGGSSNIGAGYDVHWYQQVPGKGPKVLIYGNNNRPSGVPDRFSGSNFGASASLAITGLQADDEADYFCQSYDRRLGGPVFGGGTKLTVL | < 0.001 | – | – | – | 0.391 | < 0.001 | 0.0373 | 0.306 | 0.472 | –
MPK104-v1.3-rIgG1m17,1-LS (antibody, V domains shown) VH: QVQLVESGGGLVKPGGSLRLSCAASGFTIDGYGMNWVRQAPGKGLEWVSSISASSNYIYYADSMKGRFTISRDNGKNSLYLQMHSLRVEDTGVYYCARAPLEPPYFDLWGRGTLVTVSS VL: QSVLTQPPSVSGAPGQRVTISCSGGSSNIGAGYDVHWYQQVPGKGPKVLIYGNTNRPSGVPDRFSGSNFGASASLAITGLQAEDEADYFCQSYDRRLGGPVFGGGTKLTVL | < 0.001 | 1.16 | 4.8 | – | 0.37 | < 0.001 | – | – | 0.49 | Binding (FACS) relative to parental mAb MPK104-v1.1 [5]: 1; Binding (FACS) relative to parental mAb MPK104-v1.1 [6]: 1.1
MPK15 (antibody, human IgG1, V domains shown) VH: EVQLVESGGGLVKPGGSLRLSCTVSGITFSDAWMTWVRQAPGKGLEWVGRIKRKVDGETADYAPSVKGRFTISRDDSKSTLYLQMNSLKTEDTGLYYCLTTWSDQFWGQGTLVTVSS VL: QSVVTQEPSLTVSPGGTVTLTCDSSSGAVTRGHYPFWFQQKPGQVPRTLIYDTSKKHSWTPARFSGSLLGDKAVLTLSGAQPEDEADYYCLLTYSGVRVFGGGTKLTVL | – | – | – | – | – | – | – | – | – | Kd [27]: 0.0784 nM; Kd [28]: 0.0574 nM; MPV D280 Neutralization - IC50 [29]: 3.81 ng/mL and 3.4 ng/mL; MPV D280 Neutralization by MPK15 [30]: 15.3; MPV D280 Neutralization by MPK15 [31]: 5.8; Kd [32]: 0.071 nM; Kd [33]: 0.072 nM; Kd [34]: 0.073 nM
